B1: ZNF649 (parent)
chain: YHTGKTPFVCPECGQPCSQKSGLI
B2: ZNF449 (parent)
chain: FQEYDTDCEVFRQRFRQFQYREAA

Variants of: B1
Assay: protein stability index of a GFP-peptide fusion (GPS, HEK-293T) (PSI 1-6); higher = more stable
Details: c terminus: a fixed tail appended
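Note: lentivirally expressed fusions sorted by FACS into six bins by GFP to DsRed ratio, PSI derived from sequencing read proportions per bin multiplied by bin number.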

Variant | protein stability index
E12K | 2.35
E12N | 1.53
E12V | 2.22
E12R | 2.32
Y1R | 2.69
Y1Q | 2.47
Y1M | 1.65
Y1E | 3.71
Y1G | 3.8
Y1H | 3.46
C10Q | 1.27
C10V | 1.81
C10W | 2.79
C10Y | 2.29
C10E | 1.33
C10N | 2.23
C10M | 1.53
P7C | 2.26
P7G | 2.05
P7M | 1.22
P7N | 1.98
P7R | 1.03
P7E | 1.44
P7W | 2.04
P7H | 3.19

Variant | protein stability index
T6E | 2.89
T6N | 2.89
T6C | 1.45
T6Q | 2.96
T6W | 1.96
T6A | 2.07
T6F | 2.42
T6L | 2.21
T6K | 1.79
T6D | 1.92
T6S | 1.53
P11K | 2.46
P11D | 1.4
P11F | 2.44
P11V | 2.33
P11Q | 1.57
P11H | 2.16
P11T | 2.49
G4I | 1.69
G4F | 2.36
G4V | 2.88
G4C | 2.49
G4M | 1.89
G4H | 1.96
G4N | 1.67

Variant | protein stability index
G4K | 2.18
G4E | 2.89
G4Q | 1.51
G4A | 1.49
V9A | 3.38
V9W | 2.49
V9T | 2.43
V9N | 3
L23P | 2.15
L23K | 2.56
L23H | 2.05
L23S | 2.72
L23I | 2.03
Q15V | 1.5
Q15C | 1.89
Q15F | 3.01
Q15R | 1.63
Q15Y | 1.75
Q15M | 2.16
P16N | 1.23
P16F | 2.1
P16M | 1.86
P16E | 2.79
P16D | 1.91
P16Y | 1.04

Variant | protein stability index
P16K | 1.98
P16H | 2.65
S21V | 1.6
S21L | 2.15
S21A | 1.4
S21K | 1.4
S21E | 1.85
S21N | 1.93
S21C | 2.32
G22I | 2.15
G22K | 1.89
G22Q | 2.2
G22V | 2.92
G22W | 1.63
G22S | 2.63
G22N | 2.3
I24D | 1.36
I24T | 2.01
I24A | 1.08
I24F | 2.92
I24S | 1.45
I24Y | 1.59
I24K | 1.84
Q19S | 2.96
Q19A | 1.58

Variant | protein stability index
Q19K | 1.29
G14W | 1.61
G14Q | 2.31
G14K | 2.76
G14S | 1.72
G14T | 3.65
G14M | 2.05
G14V | 2.06
G14C | 2.12
T3N | 2.03
T3I | 1.56
T3V | 2.46
T3E | 2.85
T3R | 2.23
T3A | 2.57
T3D | 2.68
H2L | 2.2
H2P | 2.15
H2K | 2.76
H2Q | 2.28
H2A | 1.99
H2Y | 2.42
H2F | 2.25
H2R | 2.1
K5E | 2.16

Variant | protein stability index
K5D | 1.77
K5F | 1.88
K5S | 2.62
K5Y | 3.06
K5T | 1.13
K5R | 2
C13E | 2.87
C13A | 3.53
C13R | 2.37
C13V | 2.13
C13Q | 2.54
C13P | 2.27
C13I | 2.35
C13H | 3
F8C | 1.83
F8L | 2.1
F8Q | 2.69
F8K | 1.82
F8G | 1.8
F8E | 2.52
F8Y | 1.54
K20C | 4.04
K20M | 1.53
K20S | 2.53
K20Q | 3.76

Variant | protein stability index
K20I | 3.23
K20L | 1.37
K20P | 2.1
S18E | 3.48
S18T | 2.5
S18W | 1.82
S18V | 1.44
S18D | 2.25
S18Y | 2.4
S18Q | 1.49
S18A | 2.31
S18N | 1.22
S18P | 2.26
S18G | 1.43
S18F | 2.27
C17H | 1.73
C17F | 1.59
C17D | 2.63
C17Q | 1.96
C17S | 2.81
C17V | 2.26
C17N | 2.76
C17T | 2.04
C17K | 3.83

Variants of: B2
Assay: as above
Details: c terminus: a fixed tail appended

Variant | protein stability index
F11M | 3.27
F11V | 3.68
F11P | 3.33
Q2K | 2.96
Q2T | 2.69
Q2I | 1.97
Q2A | 2.9
Q2H | 1.78
Q2S | 3.32
Q2G | 2.59
Q2D | 3.19
Q2F | 2.48
Q2M | 2.61
Q2L | 2.33
T6H | 2.1
T6C | 1.94
T6K | 2.05
Q17H | 2.44
Q17C | 2
Q17M | 2.7
Q17S | 2.39
Q17I | 2.6
E3H | 2.11

Variant | protein stability index
E3I | 1.91
E3N | 1.68
E3S | 2.15
E3G | 1.41
C8A | 2.76
C8D | 3.11
C8N | 2.58
C8P | 2.7
C8Y | 2
C8F | 2.24
C8E | 3.42
C8R | 2.32
C8Q | 2.21
C8L | 2.04
R21G | 3.14
R21T | 2.86
R21M | 2.69
R21K | 2.65
R21N | 2.62
R21D | 3.13
A24P | 2.77
A24L | 2.64
A24I | 2.08

Variant | protein stability index
A24F | 2.13
A24E | 2.95
A24N | 2.65
A24W | 1.93
R14K | 3.16
Y20Q | 3.73
Y20V | 3.27
Y20W | 1.47
Y20S | 3.15
Y20D | 3.49
Y20L | 2.83
Y20C | 2.2
Y20F | 2.57
E22F | 2.69
E22R | 1.65
E22I | 1.99
E22N | 2.39
E22V | 2.12
E22T | 2.62
E22A | 2.43
E22G | 2.35
E22K | 2.75
E22S | 2.07

Variant | protein stability index
E9L | 1.67
E9H | 1.6
E9G | 2.29
E9C | 1.76
E9Q | 1.88
E9M | 2.65
A23E | 3.28
A23S | 2.11
A23M | 2.43
A23D | 2.73
A23Y | 1.95
A23R | 2.97
A23F | 2.15
A23N | 2.7
A23P | 2.39
A23W | 1.61
A23T | 2.47
F18C | 1.96
F18E | 2.95
F18R | 2.43
F18A | 3.02
F18L | 4.05
F18Y | 2.59

Variant | protein stability index
F1E | 3.25
F1S | 2.85
F1Q | 2.79
F1H | 3.24
F1Y | 2.25
F1P | 3.42
D5T | 1.35
D5M | 2.05
D5L | 2.5
D5N | 2.68
D5R | 1.79
D5A | 2.25
D5Q | 1.57
D5V | 1.23
Y4Q | 2.66
Y4A | 2.12
Y4N | 2.33
Y4P | 2.28
Y4F | 2.5
Y4V | 2.41
Y4R | 2.14
Y4D | 3.03
V10T | 2.49

Variant | protein stability index
V10S | 2.78
V10N | 2.67
V10G | 2.9
V10R | 2.37
V10D | 3.02
V10H | 3
V10E | 3.08
D7P | 1.61
D7S | 2.1
D7E | 2.26
D7V | 1.34
D7T | 2.08
D7M | 1.59
D7C | 1.1
R12W | 1.94
R12F | 2.54
R12P | 2.35
R12Q | 2.61
R12N | 2.27
R12H | 2.3
R16S | 2.21
R16F | 2.44
R16G | 2.44

Variant | protein stability index
R16A | 2.51
R16W | 2.2
R16P | 2.11
R16E | 2.27
R16D | 2.6
F15L | 2.42
F15T | 2.66
F15Y | 2.17
F15E | 2.92
F15R | 2.76
F15N | 2.88
Q13E | 2.51
Q13H | 2.53
Q13S | 2.4
Q13G | 1.81
Q13T | 2.41
Q19H | 2.6
Q19R | 2.65
Q19E | 2.35
Q19Y | 2.22
Q19G | 2.67
Q19F | 1.87
